Columns and labels:
MS2 coat protein [1] = assay: apparent KD of MS2 coat protein; designed switch direction (-1 OFF switch, 1 ON switch): -1; higher = weaker reporter binding; details: Eterna round: R98
Procedure: (§1)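 RNA-MaP: designed FMN/MS2 RNA switches (84 nt design region) are transcribed on-chip within common flanks and titrated with SNAP-549-labelled MS2 coat protein (about 1-3000 nM) in 100 mM Tris pH 7.5, 80 mM KCl, 4 mM MgCl2, without or with 200 uM FMN. Median apparent KD per design; activation ratio = KD,OFF / KD,ON.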

MS2 coat protein [2] = assay: apparent KD of MS2 coat protein; designed switch direction (-1 OFF switch, 1 ON switch): 1; higher = weaker reporter binding; details: Eterna round: R98
Procedure: as §1

Row | Sequence | apparent KD of MS2 coat protein (MS2 coat protein [1]; input ligand: FMN 200 uM) | apparent KD of MS2 coat protein (MS2 coat protein [1]; input ligand: none) | apparent KD of MS2 coat protein (MS2 coat protein [2]; input ligand: FMN 200 uM) | apparent KD of MS2 coat protein (MS2 coat protein [2]; input ligand: none)
1 | AAUAUAAAAGAGCUGGAUAACUCAACAUGAGGAUCACCCAUGUAGGAUAUCAGCACGAUAAGUGCUGAGAAGGACAACCAGCUC [Denovo 69] | 16.2 nM | 14.8 nM | – | –
2 | AUGACAGGCAAAGCGCAACGGCGAACAUGAGGAUCACCCAUGUAGGAUAUGCUACACAAAGUGUAGCAGAAGGACAUACGACGA [Ex NG2 #82] | 88.6 nM | 41.2 nM | – | –
3 | UAUAUAAUAAGAGCUGGAACUCAAACAUGAGGAUCACCCAUGUAGGAUAUCAGCACGAUAAGUGCUGAGAAGGACAACCAGCUC [Denovo 75] | 21.2 nM | 17.6 nM | – | –
4 | GCACUGGAUGUAGGAUAUCAGGACGAUAAGUCCUGAGAAGGACAUGAGGAUCACCCAUGUGAAUAAAACCAGUGCAAUAAUAUA [Denovo Exng1 22] | 30.9 nM | 13.4 nM | – | –
5 | UUUACAUGAGGAUCACCCAUGUUUAGAAAGUUAAUUAUAAGUGAGGAUAUAUAAUUUAUAAAAUAGUAGAAGGCACUGGGUAUU [JR_SSNG3_Sub079] | – | – | 27.2 nM | 32 nM
6 | GGUCCAAUAUGAGGAUAUAGCACCUUAUUGGUGCUAGAAGGCGUGUCGGUAGACAUGAGGAUCACCCAUGUAUUACAAUGGACC [SameState #28 NG1] | – | – | 25.6 nM | 88.6 nM
7 | CACUCAAGGUGAGGAUAUGCACAGGAUCACCGUGUAGAAGGCAUCAGGUAGAAGGUGCAGAGGAUCACCCUGUAAGGAUAUAUC [pwkr2 ssNG1 DX.11] | – | – | 334 nM | 867 nM
8 | CCGGAAACGGGUAGCUGUACAUGAGGAUCACCCAUGUGAUCAUAGGAUAUGGUUCCUAAUUGGAACCAGAAGGAUGUCAGCUAC [Mat - Same State NG 3 - JL Mod - D86] | – | – | 434 nM | 32.6 nM
9 | CAAUUAUGGUGAGGAUAUGCACAGGAUCACCGUGUAGAAGGCAUCAGGUAGAAGGUGCAGAGGAUCACCCUGUAAGGAUAUAUC [pwkr2 ssNG1 DX.17] | – | – | 109 nM | 666 nM
10 | GUAGCAUACCGAGGAUAUUCAUAUAAUAAAUAAACAUGAGGAUCACCCAUGUGGCGAAAGCCUAGGGAGAAGGCGGAAUGCUAG [salish99_SSNG2_r2_003] | – | – | 22.1 nM | 248 nM
11 | CCCUUCAGAAGAGGGACAUGAGGAUCACCCAUGUAGGCUGCACAGGAUAUCGAUCGGAGGCGGUACGAGAAGGGUGACGUCAUU [Soedgege] | – | – | 168 nM | 79.3 nM
12 | CCGGUGUAUGCAGGAUAUGAGAGGAGGUGACCAUCAGAAGGGCAAGCCCACAUGAGGAUCACCCAUGUACUAAGAGACAAGGCC [Tienlaonso] | – | – | 50.7 nM | 25.5 nM
13 | UUUACAUGAGGAUCACCCAUGUAUGUCACCCAUGUGUGUAAUCAGGAUAUGAAAUAAAUAAUAAAUUAGAAGGGAUAACAUGAG [Attempt 1] | – | – | 72.9 nM | 60.3 nM
14 | UUGACGUCGGAUACAUGAGGAUCACCCAUGUGCCCGCGGGCACAGGAUAUCGAACAUAGUAUUGACGAGAAGGGUGACAGAGAG [Anxeenerce] | – | – | 664 nM | 404 nM
15 | CUAGCAUACCGAGGAUAUUCAUAUAAUAAAUAAACAUGAGGAUCACCCAUGUGGCGAAAGCCUAGGGAGAAGGCGGAAUGCUAG [salish99_SSNG2_r2_004] | – | – | 20.1 nM | 212 nM
16 | UCACUCACGUCAGGAUAUGGAUCGGAAAACGAUCCAGAAGGGACCUGCAAACCUGAGGAUCACCCUGGUUCCAAUAACGAGUGA [SameSame 10 - Jieux - Same State NG 1] | – | – | 133 nM | 222 nM
17 | UGACGGCACACAGGAUAUAGUGCACAAAGUGUACUAGAAGGGUGAGCACUCGUCCGGGCACAUGAGGAUCACCCAUGUCGUCGA [Onusar] | – | – | 1040 nM | 133 nM
18 | ACAUGAGGAUCACCCAUGUAAUAACAUCGGAUUGUCGAAGGUGAGGAUAUCGUACUGGAAUAUUUCGAGAAGGCACAUUCUCCU [JR_SSNG3_Sub075] | – | – | 25.9 nM | 23.5 nM

— the supplement of paper PMC9170038
